Legend:
human macrophages = assay: Custom gene array, macrophages with no cytokines, IL-10 or LPS + IFN, in normoxia and hypoxia; format: cell-based; conditions: for mRNA EXPRESSION (experimental condition) #1: #1 no cytokines/normoxia; for mRNA EXPRESSION (experimental condition) #2: #2 no cytokines/hypoxia; for mRNA EXPRESSION (experimental condition) #3: #3 IL-10/normoxia; for mRNA EXPRESSION (experimental condition) #4: #4 IL-10/hypoxia; for mRNA EXPRESSION (experimental condition) #5: #5 LPS/IFN/normoxia; for mRNA EXPRESSION (experimental condition) #6: #6 LPS/IFN/hypoxia
Outline: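 Cultured macrophages were left untreated or given IL-10 or LPS + IFN, each at 100 ng/ml final, for 6 hr under normoxia or hypoxia (0.1% oxygen). Six conditions in total.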

[1] = test system: primary human cell cultures (11 cell types); assay: Custom gene array, 11 human cell types in normoxia or hypoxia for 6 hr and 18 hr; format: cell-based
Outline: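 Eleven primary, unmodified human cell types (one non-primary neuronal type) held in normoxia or hypoxia for 6 hr and 18 hr. RNA hybridised to duplicate or triplicate custom arrays, normalised per array to reference genes. Expression given relative to each gene's median across all conditions.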

[2] = test system: human breast and ovary tumors; assay: Custom gene array, breast and ovary tumors versus normal adjacent tissue; conditions: Table 19; for gene expression level on custom gene array, Breast nor H / gene expression level on custom gene array, Breast nor K / gene expression level on custom gene array, Ovary nor E / gene expression level on custom gene array, Ovary nor F / gene expression level on custom gene array, Ovary nor G: normal adjacent tissue; for gene expression level on custom gene array, Breast nor H / gene expression level on custom gene array, Breast tum H: patient H; for gene expression level on custom gene array, Breast nor K / gene expression level on custom gene array, Breast tum K: patient K; for gene expression level on custom gene array, Breast tum H / gene expression level on custom gene array, Breast tum K / gene expression level on custom gene array, Ovary tum E / gene expression level on custom gene array, Ovary tum F / gene expression level on custom gene array, Ovary tum G: tumor tissue; for gene expression level on custom gene array, Ovary nor E / gene expression level on custom gene array, Ovary tum E: patient E; for gene expression level on custom gene array, Ovary nor F / gene expression level on custom gene array, Ovary tum F: patient F; for gene expression level on custom gene array, Ovary nor G / gene expression level on custom gene array, Ovary tum G: patient G
Outline: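 Tumor versus normal adjacent tissue from 5 patients (ovarian adenocarcinomas, invasive ductal breast carcinomas); for one patient, normal ovary came from a separate age-matched individual. Per-chip normalisation for labelling/hybridization, then per-gene values expressed relative to the gene's median across all samples; differences inferred within each patient.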

[3] = Table 15, referenced to the median value of that gene throughout all 6 conditions
[4] = Table 17, referenced to median of the gene over 6 conditions

B1: p1F24 (nucleic acid, listed as Homo Sapiens)
DNA: ATGAACTGGCATCTCCCCCTCTTCCTCTTGGCCTCTGTGACGCTGCCTTCCATCTGCTCCCACTTCAATCCTCTGTCTCTCGAGGAACTAGGCTCCAACACGGGGATCCAGGTTTTCAATCAGATTGTGAAGTCGAGGCCTCATGACAACATCGTGATCTCTCCCCATGGGATTGCGTCGGTCCTGGGGATGCTTCAGCTGGGGGCGGACGGCAGGACCAAGAAGCAGCTCGCCATGGTGATGAGATACGGCGTAAATGGAGTTGGTAAAATATTAAAGAAGATCAACAAGGCCATCGTCTCCAAGAAGAATAAAGACATTGTGACAGTGGCTAACGCCGTGTTTGTTAAGAATGCCTCTGAAATTGAAGTGCCTTTTGTTACAAGGAACAAAGATGTGTTCCAGTGTGAGGTCCGGAATGTGAACTTTGAGGATCCAGCCTCTGCCTGTGATTCCATCAATGCATGGGTTAAAAACGAAACCAGGGATATGATTGACAATCTGCTGTCCCCAGATCTTATTGATGGTGTGCTCACCAGACTGGTCCTCGTCAACGCAGTGTATTTCAAGGGTCTGTGGAAATCACGGTTCCAACCCGAGAACACAAAGAAACGCACTTTCGTGGCAGCCGACGGGAAATCCTATCAAGTGCCAATGCTGGCCCAGCTCTCCGTGTTCCGGTGTGGGTCGACAAGTGCCCCCAATGATTTATGGTACAACTTCATTGAACTGCCCTACCACGGGGAAAGCATCAGCATGCTGATTGCACTGCCGACTGAGAGCTCCACTCCGCTGTCTGCCATCATCCCACACATCAGCACCAAGACCATAGACAGCTGGATGAGCATCATGGTCCCCAAGAGGGTGCAGGTGATCCTGCCCAAGTTCACAGCTGTAGCACAAACAGATTTGAAGGAGCCGCTGAAAGTTCTTGGCATTACTGACATGTTTGATTCATCAAAGGCAAATTTTGCAAAAATAACAAGGTCAGAAAACCTCCATGTTTCTCATATCTTGCAAAAAGCAAAAATTGAAGTCAGTGAAGATGGAACCAAAGCTTCAGCAGCAACAACTGCAATTCTCATTGCAAGATCATCGCCTCCCTGGTTTATAGTAGACAGACCTTTTCTGTTTTTCATCCGACATAATCCTACAGGTGCTGTGTTATTCATGGGGCAGATAAACAAACCC
mRNA EXPRESSION (experimental condition) #1 (human macrophages; [3]): 0.65 | mRNA EXPRESSION (experimental condition) #2 (human macrophages; [3]): 0.68 | mRNA EXPRESSION (experimental condition) #3 (human macrophages; [3]): 0.99 | mRNA EXPRESSION (experimental condition) #4 (human macrophages; [3]): 1.10 | mRNA EXPRESSION (experimental condition) #5 (human macrophages; [3]): 1.62 | mRNA EXPRESSION (experimental condition) #6 (human macrophages; [3]): 1.80 | mRNA expression level ([1]; cell type #1, HY (hypoxia) 6 hr): 0.70 | mRNA expression level ([1]; cell type #1, HY (hypoxia) 18 hr): 1.01 | mRNA expression level ([1]; cell type #1, NO (normoxia)): 1.17 | mRNA expression level ([1]; cell type #2, HY (hypoxia) 6 hr): 5.52 | mRNA expression level ([1]; cell type #2, HY (hypoxia) 18 hr): 8.15 | mRNA expression level ([1]; cell type #2, NO (normoxia)): 9.63 | mRNA expression level ([1]; cell type #3, HY (hypoxia) 6 hr): 0.87 | mRNA expression level ([1]; cell type #3, HY (hypoxia) 18 hr): 0.56 | mRNA expression level ([1]; cell type #3, NO (normoxia)): 0.56 | mRNA expression level ([1]; cell type #4, HY (hypoxia) 6 hr): 11.5 | mRNA expression level ([1]; cell type #4, HY (hypoxia) 18 hr): 14.2 | mRNA expression level ([1]; cell type #4, NO (normoxia)): 12.8 | mRNA expression level ([1]; cell type #5, HY (hypoxia) 6 hr): 0.15 | mRNA expression level ([1]; cell type #5, NO (normoxia)): 0.12 | mRNA expression level ([1]; cell type #6, HY (hypoxia) 6 hr): 0.14 | mRNA expression level ([1]; cell type #6, NO (normoxia)): 0.11 | gene expression level on custom gene array, Breast nor H [2]: 1.64 | gene expression level on custom gene array, Breast nor K [2]: 1.25 | gene expression level on custom gene array, Breast tum H [2]: 1.89 | gene expression level on custom gene array, Breast tum K [2]: 0.96 | gene expression level on custom gene array, Ovary nor E [2]: 3.17 | gene expression level on custom gene array, Ovary nor F [2]: 3.24 | gene expression level on custom gene array, Ovary nor G [2]: 1.26 | gene expression level on custom gene array, Ovary tum E [2]: 0.93 | gene expression level on custom gene array, Ovary tum F [2]: 0.85 | gene expression level on custom gene array, Ovary tum G [2]: 0.80

B2: p1K2 (nucleic acid, listed as Homo Sapiens)
DNA: AAGTCTCAGAGGCTGGAGAGCAGAGCACCAAGATCGTTCTGGCAGGAACAGCCAGTGGGAGGTTCCAGCTGAGCGCTCCCCAGAGGTGAGCTGATCCCCAGCCACAGCACACAGGACCAGGCTGCGAGAACAGCATCATCAGCATCATGCTATTACAATCCCAAACCATGGGGGTTTCTCACAGCTTTACACCAAAGGGCATCACTATCCCTCAAAGAGAGAAACCTGGACACATGTACCAAAACGAAGATTACCTGCAGAACGGGCTGCCAACAGAAACCACCGTTCTTGGGACAGTCCAGATCCTGTGTTGCCTGTTGATTTCAAGTCTGGGGGCCATCTTGGTTTTTGCTCCCTACCCCTCCCACTTCAATCCAGCAATTTCCACCACTTTGATGTCTGGGTACCCATTTTTAGGAGCTCTGTGTTTTGGCATTACTGGATCCCTCTCAATTATCTCTGGAAAACAATCAACTAAGCCCTTTGACCTGAGCAGCTTGACCTCAAATGCAGTGAGTTCTGTTACTGCAGGAGCAGGCCTCTTCCTCCTTGCTGACAGCATGGTAGCCCTGAGGACTGCCTCTCAACATTGTGGCTCAGAAATGGATTATCTATCCTCATTGCCTTATTCGGAGTACTATTATCCAATATATGAAATCAAAGATTGTCTCCTGACCAGTGTCAGTTTAACAGGTGTCCTAGTGGTGATGCTCATCTTCACTGTGCTGGAGCTCTTATTAGCTGCATACAGTTCTGTCTTTTGGTGGAAACAGCTCTACTCCAACAACCCTGGGAGTTCATTTTCCTCGACCCAGTCACAAGATCATATCCAACAGGTCAAAAAGAGTTCTTCACGGTCTTGGATATAAGTAACTCTTGGCCTCAGAGGAAGGAAAAGCAACTCAACACTCATGGTCAAGTGTGATTAGACTTTCCTGAAATCTCTGCCATTTTAGATACTGTGAAACAAACTAAAAAAAAAAAAGCTTTTGTTTTGTATTTGTTTACTATGAGTCGTTATTTAATTTCTCTTGAAAATAATTTCCTCAAAGCCCAAGTCAATAAA
mRNA EXPRESSION (experimental condition) #1 (human macrophages; [4]): 1.30 | mRNA EXPRESSION (experimental condition) #2 (human macrophages; [4]): 0.98 | mRNA EXPRESSION (experimental condition) #3 (human macrophages; [4]): 0.51 | mRNA EXPRESSION (experimental condition) #4 (human macrophages; [4]): 0.59 | mRNA EXPRESSION (experimental condition) #5 (human macrophages; [4]): 1.11 | mRNA EXPRESSION (experimental condition) #6 (human macrophages; [4]): 0.91 | gene expression level on custom gene array, Breast nor H [2]: 1.00 | gene expression level on custom gene array, Breast nor K [2]: 0.79 | gene expression level on custom gene array, Breast tum H [2]: 0.49 | gene expression level on custom gene array, Breast tum K [2]: 1.52 | gene expression level on custom gene array, Ovary nor E [2]: 0.47 | gene expression level on custom gene array, Ovary nor F [2]: 1.30 | gene expression level on custom gene array, Ovary nor G [2]: 2.32 | gene expression level on custom gene array, Ovary tum E [2]: 0.29 | gene expression level on custom gene array, Ovary tum F [2]: 1.06 | gene expression level on custom gene array, Ovary tum G [2]: 0.31
